The values below come from PMC4337610.

For series [1], the target named is Hfq wild-type (Escherichia coli) (UniProt P0A6X3). Description: X-ray crystallography. Particulars: BLI: 25 mM Tris pH 7.5, 50 mM NaCl, 50 mM KCl, 1 mM MgCl2, 1 mM DTT, 0-500 nM Hfq, temperature not stated; EMSA: 1x structure buffer, 1 ug yeast RNA, 37 C …. For orientation: In EMSA bound probe runs differently from free probe, usually more slowly.
Series [2] has the same target. The experiment in a line: EMSA. The note with it: BLI: 25 mM Tris pH 7.5, 50 mM NaCl, 50 mM KCl, 1 mM MgCl2, 1 mM DTT, 0-500 nM Hfq, temperature not stated; EMSA: 1x structure buffer, 1 ug yeast RNA, 37 C ….
Series [3] shares this target. The experiment in a line: competition. Particulars: BLI: 25 mM Tris pH 7.5, 50 mM NaCl, 50 mM KCl, 1 mM MgCl2, 1 mM DTT, 0-500 nM Hfq, temperature not stated; EMSA: 1x structure buffer, 1 ug yeast RNA, 37 C ….
Series [4] shares this target. Description: BLI. Particulars: BLI: 25 mM Tris pH 7.5, 50 mM NaCl, 50 mM KCl, 1 mM MgCl2, 1 mM DTT, 0-500 nM Hfq, temperature not stated, EMSA: 1x structure buffer, 1 ug yeast RNA, 37 C ….
Series [5] has as its target Hfq66 (UniProt P0A6X3). The experiment in a line: BLI. Particulars: BLI: 25 mM Tris pH 7.5, 50 mM NaCl, 50 mM KCl, 1 mM MgCl2, 1 mM DTT, 0-500 nM Hfq, temperature not stated; EMSA: 1x structure buffer, 1 ug yeast RNA, 37 C ….
Series [6] concerns the target HfqRim R19A;P21A;Q33A;Q35A;T49A;R66A (UniProt P0A6X3). The experiment in a line: BLI. Particulars: BLI: 25 mM Tris pH 7.5, 50 mM NaCl, 50 mM KCl, 1 mM MgCl2, 1 mM DTT, 0-500 nM Hfq, temperature not stated; EMSA: 1x structure buffer, 1 ug yeast RNA, 37 C ….
In series [7] the test system is Hfq66. The experiment in a line: BLI. Particulars: 1 uM RydC; BLI: 25 mM Tris pH 7.5, 50 mM NaCl, 50 mM KCl, 1 mM MgCl2, 1 mM DTT, 0-500 nM Hfq, temperature not stated; EMSA: 1x structure buffer, 1 ug yeast RNA, 37 C …; scale: fold lower affinity than without RydC.

“GGCUUCCGAUGUAGACCCGUCCUCCUUCGCCUGCGUCACGGGUCCUGGUUAGACGCAGGCGUUUUCUG [RydC (crystal)]”: in series [1], the binding result is “binds”.
Take “GGUUCCGAUGUAGACCCGUCCUCCUUCGCCUGCGUCACGGGUCCUGGUUAGACGCAGGCGUUUUCU [RydC (EMSA transcript)]”: the binding entry in series [2] and in series [3] was “binds” each time.
“GGUUGUUUAUAUUACGAUAAUUAUUAGGCAUUAACGGGAACCGGAGCGUUCCCGAUUCACCAUGGAUGGCCUUUUCGGCAAGGGCUCCUCCCUUCCUCUGUUCUACGUCGGAUAACUGGCUCACGGAAUUGUCCGUGGG [cfa1]”: the Kd entry in series [4] and in series [6] was “binds” throughout. In the series with Hfq66 [5], the binding entry is recorded as “binds”.
As for cfa1, the binding signal (fold lower affinity than without RydC) in series [4] (1 uM RydC) was found to be 5. For the same substance, the binding signal with Hfq66 [7] was found to be 100.
